Target: T1, hiR2-FL-D569E-T7 (human, UniProt Q6PJF5 1-856)
T1 sequence: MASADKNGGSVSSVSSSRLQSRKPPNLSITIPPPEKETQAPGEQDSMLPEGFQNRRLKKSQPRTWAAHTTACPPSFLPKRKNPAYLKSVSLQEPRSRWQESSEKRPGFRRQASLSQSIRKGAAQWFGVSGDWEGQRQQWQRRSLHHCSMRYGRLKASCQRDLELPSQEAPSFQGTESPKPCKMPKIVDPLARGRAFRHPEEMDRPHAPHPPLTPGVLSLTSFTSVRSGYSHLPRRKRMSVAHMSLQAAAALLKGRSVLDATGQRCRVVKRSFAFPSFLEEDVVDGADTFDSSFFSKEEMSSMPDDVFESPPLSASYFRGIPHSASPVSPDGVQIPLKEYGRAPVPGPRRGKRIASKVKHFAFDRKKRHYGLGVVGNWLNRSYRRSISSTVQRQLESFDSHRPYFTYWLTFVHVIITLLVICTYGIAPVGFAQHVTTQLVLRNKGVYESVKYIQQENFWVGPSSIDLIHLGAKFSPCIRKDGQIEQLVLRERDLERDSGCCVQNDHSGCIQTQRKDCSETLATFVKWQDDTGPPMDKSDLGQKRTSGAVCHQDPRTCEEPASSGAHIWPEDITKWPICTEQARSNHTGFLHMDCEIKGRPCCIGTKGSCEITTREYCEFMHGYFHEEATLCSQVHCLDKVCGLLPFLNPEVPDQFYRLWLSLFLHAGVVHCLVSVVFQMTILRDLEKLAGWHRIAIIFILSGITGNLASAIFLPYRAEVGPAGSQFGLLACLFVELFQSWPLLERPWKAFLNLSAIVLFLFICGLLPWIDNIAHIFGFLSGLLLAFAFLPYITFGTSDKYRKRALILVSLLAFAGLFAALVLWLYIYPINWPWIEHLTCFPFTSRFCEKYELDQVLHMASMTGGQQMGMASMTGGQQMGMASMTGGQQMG
Experiment: FACS, MEF-DKO cells, 3 µg/ml
Method in brief: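 Binding read by flow cytometry after a PE goat anti-mouse IgG F(ab′)2 secondary (1:100, on ice, 1 h, dark). Before that, immortalized MEF-DKO lines carrying single-mutant hiR2-FL-T7 constructs were incubated 1 h on ice with 3 μg/ml antibody or FACS buffer alone.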

B1: antibody 48 (antibody, V domains shown)
VH: QVQLQQSGTELVRPGTSVKVSCKASGYAFTNYLIEWVKQRPGQGLEWIGVINPGSGFTKYNEKFKGKATLTADKSSSTVYMHLSSLTSEDSAVYFCARGLYRAMDYWGQGTSVTVSS
VL: DIQMTQSPASQSASLGESVTITCLASQTIATWLAWYQQKPGKSPQLLIYGATTLADGVPSRFSGGGSGTKFSFKISSLQAEDFVSYYCQQLYSTPYTFGGGTKLEIK
notes: mouse IgG, kappa light chain; also called clone #48; purified antibody 48
- loss of binding vs wild type: ≥ 30%

B2: antibody 50 (antibody, V domains shown)
VH: QVQLQQSGAELVRPGASVKVSCKASGYAFSNYLIEWVKQRPGQGLEWIGVINPGSGFTKYNEKFKGKATLTADKSSSTAYMQLSSLTSEDSAVYFCARGLYRAMDYWGQGTSVTVSS
VL: DIQMTQSPASQSASLGESVTITCLASQTIGTWLAWYQQKPGKSPQLLIYAAASLADGVPSRFSGGGSGTKFSFKISSLQAEDFVNYYCQQIYSTPYTFGGGTKLEIK
notes: mouse IgG, kappa light chain; also called clone #50; purified antibody 50
- loss of binding vs wild type: ≥ 30%

From patent US20240287172A1 (SCIRHOM, published 2024)
